Measurements: US20110229560

How the values were obtained:
[1] = target: T1, NLRC5-D1, containing the CARD and NOD domains (aa 1-517)
T1 chain: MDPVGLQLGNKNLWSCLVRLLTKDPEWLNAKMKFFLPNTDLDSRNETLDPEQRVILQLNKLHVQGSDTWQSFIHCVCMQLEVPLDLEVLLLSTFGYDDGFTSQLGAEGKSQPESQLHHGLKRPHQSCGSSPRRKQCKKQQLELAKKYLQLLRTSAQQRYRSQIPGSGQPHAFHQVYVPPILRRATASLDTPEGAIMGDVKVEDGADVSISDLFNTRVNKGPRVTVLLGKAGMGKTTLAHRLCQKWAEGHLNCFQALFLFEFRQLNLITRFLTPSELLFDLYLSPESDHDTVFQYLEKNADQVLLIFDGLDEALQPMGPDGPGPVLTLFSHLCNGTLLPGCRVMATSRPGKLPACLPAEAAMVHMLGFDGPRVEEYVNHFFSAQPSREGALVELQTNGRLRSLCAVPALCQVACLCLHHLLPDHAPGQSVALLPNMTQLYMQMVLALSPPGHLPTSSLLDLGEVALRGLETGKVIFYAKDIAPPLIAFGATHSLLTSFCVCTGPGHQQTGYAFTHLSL

[2] = target: T2, NLRC5-D2, containing the LRR-R1 (aa 651-898)
T2 chain: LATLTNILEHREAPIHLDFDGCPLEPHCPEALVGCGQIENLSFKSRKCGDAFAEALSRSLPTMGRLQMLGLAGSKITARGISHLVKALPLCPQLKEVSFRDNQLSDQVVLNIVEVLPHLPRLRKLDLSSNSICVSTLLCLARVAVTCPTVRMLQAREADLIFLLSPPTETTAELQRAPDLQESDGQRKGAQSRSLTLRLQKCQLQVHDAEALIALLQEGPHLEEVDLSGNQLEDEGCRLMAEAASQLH

[3] = target: T3, NLRC5-D3, containing the link region and LRR-R2 (aa 900-1329)
T3 chain: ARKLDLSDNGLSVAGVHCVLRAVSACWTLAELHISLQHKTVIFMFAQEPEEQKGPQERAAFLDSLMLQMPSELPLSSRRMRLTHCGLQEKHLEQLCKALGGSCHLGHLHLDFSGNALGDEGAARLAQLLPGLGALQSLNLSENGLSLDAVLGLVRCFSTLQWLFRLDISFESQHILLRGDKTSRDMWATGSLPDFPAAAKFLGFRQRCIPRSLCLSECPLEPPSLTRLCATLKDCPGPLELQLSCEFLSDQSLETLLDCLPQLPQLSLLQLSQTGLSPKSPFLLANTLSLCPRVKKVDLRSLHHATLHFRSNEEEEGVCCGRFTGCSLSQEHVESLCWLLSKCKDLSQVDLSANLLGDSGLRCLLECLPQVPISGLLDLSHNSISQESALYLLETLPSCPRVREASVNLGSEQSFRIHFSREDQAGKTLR

[4] = target: T4, NLRC5-D4, containing the CARD domain and LRR-R3 (aa 1-215 plus 1471-1866)
T4 chain: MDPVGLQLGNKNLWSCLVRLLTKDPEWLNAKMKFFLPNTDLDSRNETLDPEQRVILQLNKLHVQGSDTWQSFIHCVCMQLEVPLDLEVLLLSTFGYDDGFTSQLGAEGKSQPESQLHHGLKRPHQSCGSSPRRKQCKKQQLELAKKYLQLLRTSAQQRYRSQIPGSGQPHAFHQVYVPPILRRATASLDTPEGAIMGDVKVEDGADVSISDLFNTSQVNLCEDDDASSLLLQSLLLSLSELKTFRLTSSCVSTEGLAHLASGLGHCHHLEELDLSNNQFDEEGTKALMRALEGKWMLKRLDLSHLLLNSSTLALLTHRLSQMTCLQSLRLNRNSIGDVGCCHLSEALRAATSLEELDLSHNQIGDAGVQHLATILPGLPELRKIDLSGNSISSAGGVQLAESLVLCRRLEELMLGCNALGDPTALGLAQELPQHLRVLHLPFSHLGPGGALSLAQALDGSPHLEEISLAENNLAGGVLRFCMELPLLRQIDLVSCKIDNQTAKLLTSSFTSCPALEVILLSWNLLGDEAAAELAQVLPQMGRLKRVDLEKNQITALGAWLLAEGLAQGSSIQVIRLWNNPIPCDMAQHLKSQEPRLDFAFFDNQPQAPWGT

B1: Flag-tagged IKKβ (full length) (protein)
chain: MSWSPSLTTQTCGAWEMKERLGTGGFGNVIRWHNQETGEQIAIKQCRQELSPRNRERWCLEIQIMRRLTHPNVVAARDVPEGMQNLAPNDLPLLAMEYCQGGDLRKYLNQFENCCGLREGAILTLLSDIASALRYLHENRIIHRDLKPENIVLQQGEQRLIHKIIDLGYAKELDQGSLCTSFVGTLQYLAPELLEQQKYTVTVDYWSFGTLAFECITGFRPFLPNWQPVQWHSKVRQKSEVDIVVSEDLNGTVKFSSSLPYPNNLNSVLAERLEKWLQLMLMWHPRQRGTDPTYGPNGCFKALDDILNLKLVHILNMVTGTIHTYPVTEDESLQSLKARIQQDTGIPEEDQELLQEAGLALIPDKPATQCISDGKLNEGHTLDMDLVFLFDNSKITYETQISPRPQPESVSCILQEPKRNLAFFQLRKVWGQVWHSIQTLKEDCNRLQQGQRAAMMNLLRNNSCLSKMKNSMASMSQQLKAKLDFFKTSIQIDLEKYSEQTEFGITSDKLLLAWREMEQAVELCGRENEVKLLVERMMALQTDIVDLQRSPMGRKQGGTLDDLEEQARELYRRLREKPRDQRTEGDSQEMVRLLLQAIQSFEKKVRVIYTQLSKTVVCKQKALELLPKVEEVVSLMNEDEKTVVRLQEKRQKELWNLLKIACSKVRGPVSGSPDSMNASRLSQPGQLMSQPSTASNSLPEPAKKSEELVAEAHNLCTLLENAIQDTVREQDQSFTALDWSWLQTEEEEHSCLEQAS
- phosphorylation of IKKβ [1]: NLRC5-D1, -D2 and -D4 produced little or only slight inhibition
- phosphorylation of IKKβ [2]: NLRC5-D1, -D2 and -D4 produced little or only slight inhibition
- phosphorylation of IKKβ [3]: NLRC5-D3 strongly inhibited IKKα and IKKβ phosphorylation
- phosphorylation of IKKβ [4]: NLRC5-D1, -D2 and -D4 produced little or only slight inhibition

B2: Flag-tagged IKKα (protein)
chain: MERPPGLRPGAGGPWEMRERLGTGGFGNVCLYQHRELDLKIAIKSCRLELSTKNRERWCHEIQIMKKLNHANVVKACDVPEELNILIHDVPLLAMEYCSGGDLRKLLNKPENCCGLKESQILSLLSDIGSGIRYLHENKIIHRDLKPENIVLQDVGGKIIHKIIDLGYAKDVDQGSLCTSFVGTLQYLAPELFENKPYTATVDYWSFGTMVFECIAGYRPFLHHLQPFTWHEKIKKKDPKCIFACEEMSGEVRFSSHLPQPNSLCSLVVEPMENWLQLMLNWDPQQRGGPVDLTLKQPRCFVLMDHILNLKIVHILNMTSAKIISFLLPPDESLHSLQSRIERETGINTGSQELLSETGISLDPRKPASQCVLDGVRGCDSYMVYLFDKSKTVYEGPFASRSLSDCVNYIVQDSKIQLPIIQLRKVWAEAVHYVSGLKEDYSRLFQGQRAAMLSLLRYNANLTKMKNTLISASQQLKAKLEFFHKSIQLDLERYSEQMTYGISSEKMLKAWKEMEEKAIHYAEVGVIGYLEDQIMSLHAEIMELQKSPYGRRQGDLMESLEQRAIDLYKQLKHRPSDHSYSDSTEMVKIIVHTVQSQDRVLKELFGHLSKLLGCKQKIIDLLPKVEVALSNIKEADNTVMFMQGKRQKEIWHLLKIACTQSSARSLVGSSLEGAVTPQTSAWLPPTSAEHDHSLSCVVTPQDGETSAQMIEENLNCLGHLSTIIHEANEEQGNSMMNLDWSWLTE
- phosphorylation of IKKα [1]: NLRC5-D1, -D2 and -D4 produced little or only slight inhibition
- phosphorylation of IKKα [2]: NLRC5-D1, -D2 and -D4 produced little or only slight inhibition
- phosphorylation of IKKα [3]: NLRC5-D3 strongly inhibited IKKα and IKKβ phosphorylation
- phosphorylation of IKKα [4]: NLRC5-D1, -D2 and -D4 produced little or only slight inhibition
